Results: the nanobody polyreactivity screen of Harvey et al. (2022)

Test: yeast display, Sf9 membrane polyspecificity reagent, FACS + sequencing; frameworks hold sequencing errors
Procedure, shortened: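 Synthetic nanobody libraries on Saccharomyces cerevisiae BJ5465 were galactose-induced for 36–48 hours, stained 1 hour at 4 °C with 10% biotinylated, detergent-solubilized Sf9 membrane reagent and enriched on streptavidin microbeads. FACS then separated cells into low and high (top ~1%) gates by anti-HA (expression) and streptavidin (reagent binding) fluorescence. Genes were colony-PCR amplified, MiSeq 2 × 250 sequenced and CDR-length filtered. A clone's polyreactivity label is that of its gate of origin.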

Row | Sequence | polyreactivity (PSR sort gate)
1 | QVQLVESGGGLVQAGRSLRLSCAASGSISRFYAMGWYRQAPAKERELVGANSWSGGRTYYADSVKGRFTISRDNAKNTVYLQMNSLKPEDTAVYYCNAFRRYNDEDYWGQGTQVTVSS | high polyreactivity
2 | QVQLVESGGGLVQAGRSLRLSCAASGSTFPWYTMGWYRQAPGKERELVAAIDGSAGDTYYADSVKGRFTISRDNAKNTVYLQMNSLKPEDTAVYYCATRTSRWGYLHYDYWGQGTQVTVSS | low polyreactivity
3 | QVQLVESGGGLVQAGRSLRLTCAASGRTFLANAMGWYRQAPGKEREFVAAIDWRTGSTYYADSVKGRFTISRDNAKNSVYLQRNSLNPEDTAVYYCAKDSSSYYYAHFYYWGQGTQVTVSS | high polyreactivity
4 | QVQLVESGGGLVQAGRTLRLRCAASVSTVPYAMGWYSPAPGKERELVAAISKSAGRSYYADYVKGRFTISRENAKNTVYLQMNSLKPEDTAVYYCAARQSYYGHDYWGQGTQVTVSS | high polyreactivity
5 | QVQLVESGGGLVQAGRTLRLSCAASGRTFVPYAMGWYRPAPGKERELVAAISYSGDSTYYADSVKGRFTISRDNAKNTVYLQMNRLKPEDTAVYYCAARGGYPFYYWGQGTQVTVSS | low polyreactivity
6 | QVQLVESGGGLVQAGRTLRLSCAASGRTLGLYAMGWYRQAPGKERELVAAITTSGGSTSYADSVKGRFTISRDNAKNTVYLEMNSLKPEDTSVYYCAVDVEVTFFQYSWIYGSWGQGTQVTVSS | low polyreactivity
7 | QVQLVESGGGLVQAGRTLRLSCAASGSTFSVYGMVWYRQAPGKERELVAINIIGGSTYYADSVKGRFTISRDNAKYTVYLQMNSLKPEDTAVFYCAADSFPSEFDYWGQGTQVTVSS | low polyreactivity
8 | QVQLVESGGGLVQAGRTLRLSCAPSGSIFSYYAMGWYRQAPGKERELVAAITSGGTTYYADSVKGRFTISRDNAKNTVYLQMNSVKPEDTAVYYCAADFVFRWYSYTGRWYSSYDYWGQGTQVTVSS | low polyreactivity
9 | QVQLVESGGGLVQAGSSLRISCAASGRTLIYYAMGWYRQAPGKEREMVASINRRGDSTYYADSVKGRFTISRYNAKNTVYLQMYSLKPEDTAVYYCAKVLYGGYPENRYFVGWGREYLGQGTQVTVSS | high polyreactivity
10 | QVQLVESGGGLVQAGVSLRLICDAYGRIFIVNAMGWYRQAPGKERELVAAISRGGSKNYADSVKGRFTISRDNAKNTVYLQMNSLKPEDTAVYYWNGDGSSYWYPVTQHGGDYCGQGTQVTVSS | low polyreactivity
11 | QVQLVESGGGLVQAGVSLRLSCAASGFIFEPSAMGWYRQAPGKERELVAAISSGGSTNADSVKGRFTISRDNAKNTVYLQMNSLKPEDTAVYYCAADSYYSVWGFYYWGQGTQVTVSS | low polyreactivity
12 | QVQLVESGGGLVQAGVSLRLSCAASGFIFSTYAMGGYRQAPGKERELFASIDWSGDSTYYADSVKGRFTISRDNAKNTVYLQMNSLKPEDTAVYYCAASLWPDYEYDYWGQGTQVTVSS | low polyreactivity
13 | QVQLVESGGGLVQAGVSLRLSCAASGFTFTTYVMGSYRQAPGKERELVAAISRRGTSTRYADSVKGRFTISRDNAKNTVYLQMNSLKPEDTAVYYCAADRPYSIVPYDYWGQGTQVTVSS | high polyreactivity
14 | QVQLVESGGGLVQAGVSLRLSCAASGITFNHYTMGWYRQAPGKERELVAAISSRGSTTYYADSVKGRFTISRDNAKNTVYLQMNSLKPEDTAVYYCAAVYYLYSAWRYDYWGQGTQVTVSS | high polyreactivity
15 | QVQLVESGGGLVQAGVSLRLSCAASGITLYRYAMGWYRQATGKERELVADISSGGGTTYYADSVKGRFTISRDNAKNTVYLQMNSLKPEDTAVYYCAADYGFRYPLYDYWGQGTQVTVSS | low polyreactivity
16 | QVQLVESGGGLVQAGVSLRLSCAASGRIFNYYTMGWYRQAPGKERELVAAINWSGGSTYYADSVKGRFTISRDNAKNTVYLQMNSLKPEDTAVYYCNALGYYGRAYYRGYDYWGQGTQVTVSS | high polyreactivity
17 | QVQLVESGGGLVQAGVSLRLSCAASGRIFVGYAMGWYRQAPGKERELVAGIRYSGGSTYYADSVKGRFTISRDNAKNTVYLQMNSLKPEDTAVYYCATQVWHYAGRPNYKYDYWGQGTQVTVSS | low polyreactivity
18 | QVQLVESGGGLVQAGVSLRLSCAASGRTFTHYPMGWYRQAPGKERELVAAISRSGGTTYYADSVKGRFTISRDNAKSTVYLQMNSLKPEDTAVYYCNAEVVDSELGVFVDYYWAYDYWGQGTQVTVSS | high polyreactivity
19 | QVQLVESGGGLVQAGVSLRLSCAASGRTFVWYVKGWYRQAPGKERELVAAINRSGGRTYYADSVKGRFTISRDNAKNTVYLQMNSLKPEDTAVYYCAAARYVRYYSGYWGQGTQVTVSS | high polyreactivity
20 | QVQLVESGGGLVQAGVSLRLSCAASGSIFAYYAMGWYRQAPGKERELVATIRSSGGRTYYADSVKGRFTISRDNAKNNVYLHLNSLKPEDTAVYYCAAERSITYDYWGQGTQVTVSS | high polyreactivity
21 | QVQLVESGGGLVQAGVSLRLSCAASGSIFGHYAMGWYRQAPGKERELVAAISWSGTSTYYADSVKGRFTISRDNAKNTVYLQMNSLKPEDTAVYYCNVVYRVVSPSGGGYWGQGTQVTVSS | high polyreactivity
22 | QVQLVESGGGLVQAGVSLRLSCAASGSIFRIYGMGWYRQAPGKEREFVAAITHSGGSTYYADSVKGRFTISRDNAKNTVYLQMNSLKPEDTAVYYCAAEDYNYWSYDYWGQGTQVTVSS | low polyreactivity

Row | Sequence | polyreactivity (PSR sort gate)
23 | QVQLVESGGGLVQAGVSLRLSCAASGSIFYYYAMGWYRPAPGKERELVAAITRSGGSTYYADSVKGRFTISRDNAKNTVYLQMNSLKPEDTAVYYCAKDAHAYRDLDYWGQGTQVTVSS | low polyreactivity
24 | QVQLVESGGGLVQAGVSLRLSCAASGSTFAFYDMGWYRQAPGKERELVAGISSSGSTYYADSVKGPFTISRDNAKNTVYLQMNSLKPEDTAVYYCAADAPYLVPYGWWDYDYDYWGQGTQVTVSS | low polyreactivity
25 | QVQLVESGGGLVQAGVSLRLSCAASGSTFPVNTMGWYRQAPGKERELVAAISWSGGRTYYADSVKGRFTISRDNAKNNVYLQMNILKPEDTAVYYCAADIGSYYYYTYYYWGQGSQVTVSS | high polyreactivity
26 | QVQLVESGGGLVQAGVSLRLSCAASGSTFYRKTMGWYIQAPGKERELVAAISSSGGSTYYADSVNGRFTISRDNAKNTVYLQMNSLKPEDTAVYYCADTYSPFDFYYWRQGTQVTVSS | low polyreactivity
27 | QVQLVESGGGLVQAGVSLRLSCAASGSTVGYNAMGWYRQAPGKERELVAAISGNGGSTYADSVKGRFTISRDNAKNTVYLQMNSLKPEDTAVYFCAAVQYGYGLASDSIFDYWGQGTQVTVSS | high polyreactivity
28 | QVQLVESGGGLVQAGVSLRLSCAASGTFFGYAMGWYRQAPGKERELVASITSGDSTNYADSVKGRFTISRDNAKKTVYLQMNSLKPEDTAVYYCNADRFADYDYWGQGTQVTVSS | low polyreactivity
29 | QVQLVESGGGLVQAGVSLRLSCAASGYIFRFNAMGWYRQAPGKERELVAVITSGARTYYADSVKGRFTISRDNAKNTVYLQMNSLKPEDTAVYYCNAGARRYLYDYWGQGTQVTVSS | low polyreactivity
30 | QVQLVESGGGLVQAGVSLRLSCASSGFTFHYYAMGWYRQAPGKERELVAAISWSSGRTYYADSVKGRFTISRDNAKNTVYLQMNSLKPEDTAVYYCAASSYNRGDYWGQGTQVTVSS | low polyreactivity
31 | QVQLVESGGGLVQAGVSLRLSCDASGSILRENAMGWYRQAPGKERELVAVITRGGNTYYADSVKGRFTISRDNAKNTVYLQMNSLKPEDTAVYYCAAKRRERYGLTYGYWGQGTQVTVSS | high polyreactivity
32 | QVQLVESGGGLVQARGILRLSCAASGNIFGRYAMGWSRQAPGKERELVAAITRSCGRTYYADSVKGRFTISRHHAKNTVYLQRNSLKPEDTAGYYCAAVGGRDVYPVVDRDYWGQGTQLTVSS | low polyreactivity
33 | QVQLVESGGGLVQARGSLRLICAASVQIFRVYAMGWSRQAPGKEREFVAAMTYDGGNTYYADSVKGRFTISRDNAKNTVYLQMLSLKPEDTAVYYCAKDYGEWGQGTQVTVSS | low polyreactivity
34 | QVQLVESGGGLVQARGSLRLSCAASGFIIRWNTKGWYRQAPGKVRELVAAISSRGGSTYYADSVKGRFKISRDNAKNTVYLQMNSRKPEDTAVYYCNAVRGDEYWGLGTQVTVSS | high polyreactivity
35 | QVQLVESGGGLVQARGSLRLSCAASGFIYRYNVMGWYRQAPGKERELVAAISTSGGRTYYADSVKGRFTISRDNAKITVYLQMNSLKPEDTAVYYCIAVISEVHKVRDGFYWGQGSQVTVSS | high polyreactivity
36 | QVQLVESGGGLVQARGSLRLSCAASGFNISNYAMGWYREAPGKESELVAAIRRSGGSTYYADSVKGRFTISRDNAKNTVYLQMNSRKPEDTAVYYCAAYPKRGSRYDYWGLGTQVTVSS | high polyreactivity
37 | QVQLVESGGGLVQARGSLRLSCAASGFTFPSYAMGWYRQAPGKERELVARITWIGGRTYYADSVKGRFTISRDNAKNTVYLQMNSLKPEDSAVYYCAARIGGGPVKYDYWGQGTQVTVSS | high polyreactivity
38 | QVQLVESGGGLVQARGSLRLSCAASGFTFSDYVMGWYRQAPGKERELVAVITSGSSTYYADSVKGRFTISRDNAKNTVYLQMNSLKPEDTAVYYCNADPDDGYFSDFDYWGQGTQVTVSS | low polyreactivity
39 | QVQLVESGGGLVQARGSLRLSCAASGFTFSRYAMGWYRQAPGKERELVAAITRSGGSTYYADSVKGRFTISRDNAKNTVYLQMNSLKPEDTAVYYCAKRAASGFRWDSGYWGQGTQVTVSS | high polyreactivity
40 | QVQLVESGGGLVQARGSLRLSCAASGGIFDTYVMGWYRQAPGKERELVAAISCSGSTTYADSVKGRFTISRDNAKYTVYLQMNSLKPEDTAVYYCNADYSTIWRYDYWGQGTQVTVSS | low polyreactivity
41 | QVQLVESGGGLVQARGSLRLSCAASGGTFESYAMGWYRQAPGKERELVAAITYSGGSTYYADSVKGRFTISRDNAKNTVYLQMNSLKPEDTAVYYCAARPRFITYKRYYWGQGTQVTVSS | high polyreactivity
42 | QVQLVESGGGLVQARGSLRLSCAASGGTFLSYAMGWYRQAPGKERELVAGISSGGSTNYADSVKGRFTISRDNAKNTVYLQMNSLKPEDTAVDYCAADSFPSEFDYWGQGTQVTVSS | low polyreactivity
43 | QVQLVESGGGLVQARGSLRLSCAASGIIFKGYAMGWYRQAPGKERELVAGITRYGGGTYYADSVKGRFTISRDNAMNTVYLQMNRLKPEDTAVYYCAAVRIARAVQDYDYWGQGTQVTVSS | high polyreactivity
